The results in this text go back to US20230312740A1 (VIRTUOSO BINCO, published 2023).

The target of assay [1] is T1, Avi-human CD38 ECD (human, UniProt P28907 43-300).
T1 construct: eluted as a monomer; also called hCD38; huCD38
Nature of the assay: SPR. (In general: Surface plasmon resonance follows binding to a sensor surface in real time, without labels.)

Assay [2] addresses T2, Human ICAM1 ECD-Avi (human, UniProt P05362 28-480).
T2 construct: eluted as a monomer; also called hICAM1; recombinant ICAM1
Kind of assay: SPR.

Assay [3] concerns the target T3, ICAM1 on the surface of tumor cells (human, UniProt P05362 28-532).
T3 construct: whole, on cells; also called ICAM1 on DU145 cells; ICAM1 on the surface of Daudi cells
Nature of the assay: flow cytometry on DU145 cells. In general terms: A flow cytometer gives signals particle by particle.
Protocol: (§1) Surface expression of CD38 and ICAM1 on the transformed cell lines was quantified by flow cytometry. Harvested cells were centrifuged at 2000 rpm for 5 min, resuspended in 10 - 15 ml ice-cold culture medium, and then counted. Then, 3×10⁶ cells were resuspended per ml of blocking buffer (PBS plus 2% FBS). 100 µl of the cell suspension was dispensed into each well of a 96-well plate and incubated at room temperature for 10-20 min. […] While incubating, purified antibodies were diluted to the desired dilution with blocking buffer. After a 10-20 minutes incubation, cells were centrifuged for 5 minutes at 2000 rpm in a refrigerated centrifuge. Blocking buffer was aspirated, and the cells were resuspended in 100 µl/well diluted antibodies and incubated for 1 hour at 4° C. The cells were then washed 3 times with PBS plus 2% FBS. […] The cells were then washed 3 times with 200 µl PBS by centrifuging at 2000 rpm for 5 min. After the last wash, the cells were resuspended in 300 µl cold PBS and analyzed on a FACSVerse™ (BD Biosciences) flow cytometer.
(§2) Binding of the chimeric anti-CD38 and anti-ICAM1 antibodies to proteins on the surface of tumor cells was determined by flow cytometry, as described above.

The target of assay [4] is T2, Human ICAM1 ECD-Avi. Nature of the assay: ELISA, plate coated with recombinant ICAM1. (In general: An ELISA detects its analyte on a solid surface through an enzyme-linked reagent.)
Protocol: (§3) A 96-well plate was coated overnight at 4° C. with 1 µg/ml recombinant CD38 or ICAM1. After washing 3 times, the plate was blocked with 300 µl 1% BSA in PBST at 37° C. for 1 hour. Serially diluted antibodies were added and incubated at 37° C. for 1 hour. The plate was then washed 4 times with PBST and incubated with 1:5000 diluted 2nd antibody (Sigma, Cat# A0293) at 37° C. for 1 hour.
The target in assay [5] is T2, Human ICAM1 ECD-Avi. Kind of assay: SPR (Biacore 8K), antibody captured, monomeric ICAM1 ECD injected.
Protocol: (§4) Furthermore, binding kinetics measurements of the anti-CD38 and anti-ICAM1 antibodies were not affected by antibody valency in the SPR assays because antibodies were immobilized and challenged with monomeric antigens. SPR was performed on a Biacore 8K instrument (GE Healthcare). Antibodies were captured on Biacore Series S CM5 sensor chips coated with a monoclonal mouse anti-human IgG (Fc) antibody (GE Healthcare human antibody capture kit). Serial 3-fold dilutions of antigen (CD38 ECD or ICAM1 ECD) were injected at a flow rate of 30 µl/min. Each sample was analyzed with 1 min association and 10 min dissociation at room temperature (25° C.). After each injection, the chip was regenerated using 3 M MgCl₂. A 1:1 Langmuir model of simultaneous fitting of kₒₙ and koff was used for kinetics analysis.
Assay [6] addresses T3, ICAM1 on the surface of tumor cells. Nature of the assay: flow cytometry on Daudi cells; lower end of the range; Daudi cells.
Protocol: as §1
In assay [7] the target is T4, CD38 on the surface of tumor cells (human, UniProt P28907 1-300). Nature of the assay: cell-based or functional assay.
Assay [8] concerns the target T4, CD38 on the surface of tumor cells. Kind of assay: flow cytometry on Daudi cells.
Protocol: as §1, §2
Assay [9] deals with T1, Avi-human CD38 ECD. Kind of assay: ELISA, plate coated with recombinant CD38.
Protocol: as §3
The target of assay [10] is T1, Avi-human CD38 ECD. Nature of the assay: SPR (Biacore 8K), antibody captured, monomeric CD38 ECD injected.
Protocol: as §4
Assay [11] concerns the target T4, CD38 on the surface of tumor cells. Nature of the assay: cell-based or functional assay. The source holds these as a separate data set.
For assay [12], the target named is T1, Avi-human CD38 ECD. Kind of assay: ELISA on human CD38 ECD; class A = EC50 0.02 nM - 0.1 nM (table legend).
Assay [13] has as its target T1, Avi-human CD38 ECD. Kind of assay: ELISA on human CD38 ECD; class B = EC50 0.1 nM - 0.5 nM (table legend).
The target in assay [14] is T1, Avi-human CD38 ECD. Nature of the assay: ELISA on human CD38 ECD; class C = EC50 >0.5 nM (table legend).

Numbering of substitutions follows the chain as printed.

B1: αCD38(scFv) x αICAM1 (bispecific antibody, human IgG1, kappa)
heavy: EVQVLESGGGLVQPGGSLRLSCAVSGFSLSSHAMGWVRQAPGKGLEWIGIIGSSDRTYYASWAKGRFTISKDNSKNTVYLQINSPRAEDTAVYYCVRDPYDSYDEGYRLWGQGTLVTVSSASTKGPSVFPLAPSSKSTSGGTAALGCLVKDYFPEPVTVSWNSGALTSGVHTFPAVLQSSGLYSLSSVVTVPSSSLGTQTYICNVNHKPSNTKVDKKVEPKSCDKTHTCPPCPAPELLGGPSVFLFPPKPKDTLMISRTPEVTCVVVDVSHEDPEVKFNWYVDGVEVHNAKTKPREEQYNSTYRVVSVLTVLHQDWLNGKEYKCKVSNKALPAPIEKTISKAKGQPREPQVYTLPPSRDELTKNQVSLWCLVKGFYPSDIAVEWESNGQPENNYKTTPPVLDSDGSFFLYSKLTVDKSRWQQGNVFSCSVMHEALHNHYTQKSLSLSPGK
light: DIQMTQSPSTLSASVGDRVTITCQASQSIYRYLSWYQQKPGKAPKFLIYDASKLASGVPSRFSGSGSGTEFTLTISSVQPDDFATYYCQQAYSSGSIDNAFGGGTKVEIKRTVAAPSVFIFPPSDEQLKSGTASVVCLLNNFYPREAKVQWKVDNALQSGNSQESVTEQDSKDSTYSLSSTLTLSKADYEKHKVYACEVTHQGLSSPVTKSFNRGEC
scFv: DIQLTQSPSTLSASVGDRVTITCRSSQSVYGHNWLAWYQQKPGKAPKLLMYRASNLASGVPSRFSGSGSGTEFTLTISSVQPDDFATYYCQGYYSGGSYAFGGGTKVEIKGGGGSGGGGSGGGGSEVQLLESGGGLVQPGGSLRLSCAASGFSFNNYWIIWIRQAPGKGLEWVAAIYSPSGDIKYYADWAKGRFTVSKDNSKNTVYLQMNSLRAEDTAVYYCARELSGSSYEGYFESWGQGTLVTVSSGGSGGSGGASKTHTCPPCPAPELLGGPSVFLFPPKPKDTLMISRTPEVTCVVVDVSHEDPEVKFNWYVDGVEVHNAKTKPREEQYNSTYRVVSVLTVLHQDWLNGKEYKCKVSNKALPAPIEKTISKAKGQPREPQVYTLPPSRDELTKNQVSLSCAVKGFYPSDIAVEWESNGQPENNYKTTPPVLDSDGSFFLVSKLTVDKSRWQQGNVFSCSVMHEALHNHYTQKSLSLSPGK
notes: h11F2-6 Fab arm on Fc-knob, h18E4-19 scFv on Fc-hole; IgG1 Fc; also called three chain bispecific antibody; scFv format bispecific antibody
As to B1, the dissociation constant Kd is 2000 to 5000 pM in assay [1] and 100 to 150 pM in [2].

B2: αCD38(TCR) x αICAM1 (bispecific antibody, human IgG1, kappa)
heavy 1: EVQLLESGGGLVQPGGSLRLSCAASGFSFNNYWIIWIRQAPGKGLEWVAAIYSPSGDIKYYADWAKGRFTVSKDNSKNTVYLQMNSLRAEDTAVYYCARELSGSSYEGYFESWGQGTLVTVLEDLKNVFPPEVAVFEPSEAEISHTQKATLVCLATGFYPDHVELSWWVNGKEVHSGVCTDPQPLKEQPALQDSRYALSSRLRVSATFWQNPRNHFRCQVQFYGLSENDEWTQDRAKPVTQIVSAEAWGRASDKTHTCPPCPAPELLGGPSVFLFPPKPKDTLMISRTPEVTCVVVDVSHEDPEVKFNWYVDGVEVHNAKTKPREEQYNSTYRVVSVLTVLHQDWLNGKEYKCKVSNKALPAPIEKTISKAKGQPREPQVCTLPPSREEMTKNQVSLSCAVKGFYPSDIAVEWESNGQPENNYKTTPPVLDSDGSFFLVSKLTVDKSRWQQGNVFSCSVMHEALHNHYTQKSLSLSPG
light 1: DIQLTQSPSTLSASVGDRVTITCRSSQSVYGHNWLAWYQQKPGKAPKLLMYRASNLASGVPSRFSGSGSGTEFTLTISSVQPDDFATYYCQGYYSGGSYAFGGGTKVEIKPDIQNPDPAVYQLRDSKSSDKSVCLFTDFDSQTQVSQSKDSDVYITDKCVLDMRSMDFKSNSAVAWSQKSDFACANAFQNSIIPEDTFFPSPESS
heavy 2: not shown
light 2: B1 light
notes: also called TCR format bispecific antibody; TCR-chimera bispecific antibody
In the case of B2, the values for the dissociation constant (Kd) in assay [1] and in [2] were 2000 to 5000 pM and 100 to 150 pM, respectively.

B3: anti-ICAM1 chimeric monoclonal antibody 11F2 (antibody, human IgG1, kappa, V domains shown)
VH: QSVEESGGGLVKPGGTLTLTCTVSGFSLSSHAMGWVRQAPGKGLEYIGIIGSSDRTYYASWAKGRFTISKTSTTVDLKITSPTTEDTATYFCVRDPYDSYDDGYRLWGPGTLVTVSS
VL: AYDMTQTPASVEVAVGGTVTIKCQASQSIYRYLSWYQKKPGQRPKFLIYDASKLASGVPSRFEGSGSGTEFTLTISGAQSDDAATYYCQQAYSSGSIDNAFGGGTEVVVKR
notes: Rabbit variable domains on human IgG1 / human kappa constant regions; also called chimeric 11F2
Turning to B3, the results for the EC50 in assay [3] and in [4] were 1000 to 1500 pM and around 50 pM, respectively. The same molecule yielded a dissociation constant (Kd) in assay [5] of 100 to 500 pM.

B4: anti-ICAM1 chimeric monoclonal antibody 8B12 (antibody, human IgG1, kappa, V domains shown)
VH: B3 VH with S30T, Y100F
VL: B3 VL with R31S, K38Q, L54V, E63K, G77A, A78V, G95S, S96N, I97V, V108M
notes: Rabbit variable domains on human IgG1 / human kappa constant regions; also called chimeric 8B12
As for B4, the values for the EC50 in assay [3], in assay [4] and in assay [6] were 1000 to 1500 pM, around 50 pM and 40 to 80 pM, respectively. Further, the equilibrium dissociation constant (Kd) in assay [5] was 100 to 500 pM.

B5: anti-CD38 chimeric monoclonal antibody 18E4 (antibody, human IgG1, kappa, V domains shown)
VH: QSLEESGGDLVKPGASLTLTCTASGFSFNNYWICWIRQAPGKGLEWVACIYSPSGDIKYYANWAKGRFTVSKTSSTTVTLQMTSLTGADTATYFCARELSGSSYEGYFESWGPGTLVTVSS
VL: AQVLTQTPSSVSAAVGGTVTINCQCSQSVYGHNWLAWYQHKPGQPPKLLMYRASNLASGVPSRFKGSGSGSQFTLTIGEVQSDDAATYYCQGYYNGGSYAFGGGTEVVVRR
notes: Rabbit variable domains on human IgG1 / human kappa constant regions; also called chimeric 18E4; Chimeric antibody 18E4
For B5, the “CDC on Daudi cells, EC50” value in assay [7] fell in the range of 1000 to 2000 pM. In addition, the EC50 was 300 to 1000 pM in [8] and around 50 pM in assay [9]. In addition, in assay [10], the Kd was in the range of 100 to 500 pM.

B6: h18E4-19 (antibody, V domains shown)
VH: EVQLLESGGGLVQPGGSLRLSCAASGFSFNNYWIIWIRQAPGKGLEWVAAIYSPSGDIKYYADWAKGRFTVSKDNSKNTVYLQMNSLRAEDTAVYYCARELSGSSYEGYFESWGQGTLVTV
VL: DIQLTQSPSTLSASVGDRVTITCRSSQSVYGHNWLAWYQQKPGKAPKLLMYRASNLASGVPSRFSGSGSGTEFTLTISSVQPDDFATYYCQGYYSGGSYAFGGGTKVEIK
notes: also called hu18E4-19; humanized h18E4-19 antibody
As for B6, the “ADCC on Daudi cells, EC50” value in assay [7] lay in the range of 0.05 to 0.1 pM. Besides, in assay [11], the “ADCC EC50 on Daudi cells; antibody made in CHO” value came to 12.7 pM, the “ADCC EC50 on Daudi cells; antibody made in CHO FUT8 -/- (afucosylated)” value came to 0.4 pM, the “ADCC EC50 on HuNS1 cells; antibody made in CHO” value amounted to 80 pM and the “ADCC EC50 on HuNS1 cells; antibody made in CHO FUT8 -/- (afucosylated)” value was 80 pM. Besides, in [11], the “ADCC EC50 on Raji cells; antibody made in CHO” value came out at 14 pM and the “ADCC EC50 on Raji cells; antibody made in CHO FUT8 -/- (afucosylated)” value worked out at 8 pM. This molecule also returned an EC50 in assay [12] of 20 to 100 pM.

B7: h18E4-13 (antibody, V domains shown)
VH: EVQLLESGGGLVQPGGSLRLSCAASGFSFNNYWICWIRQAPGKGLEWVACIYSPSGDIKYYADWAKGRFTVSKDNSKNTVYLQMNSLRAEDTAVYYCARELSGSSYEGYFESWGQGTLVTVSS
VL: B6 VL
As to B7, the binding result in assay [1] was “binds”.

B8: h18E4-19 LC Y96A (antibody, V domains shown)
VH: B6 VH
VL: B6 VL with Y99A
notes: Alanine scan variant of h18E4-19; Kabat numbers, not linear positions of the entry
As for B8, the EC50 in assay [13] lay within 100 to 500 pM.

B9: h18E4-19 HC G100cA (antibody, name in Kabat numbering, V domains shown)
VH: B6 VH with G108A
VL: B6 VL
notes: as for B8
The molecule B9 gave an EC50 in assay [13] of 100 to 500 pM.

B10: h18E4-19 LC S93A (antibody, V domains shown)
VH: B6 VH
VL: B6 VL with S95A
notes: as for B8
The molecule B10 returned a 50% effective concentration (EC50) in assay [13] of 100 to 500 pM.

B11: h18E4-19 HC E95A (antibody, name in Kabat numbering, V domains shown)
VH: B6 VH with E100A
VL: B6 VL
notes: as for B8
In turn, B11 came in with an EC50 in assay [14] above 500 pM.

B12: h18E4-19 HC E100bA (antibody, name in Kabat numbering, V domains shown)
VH: B6 VH with E107A
VL: B6 VL
notes: as for B8
B12: in assay [14], the half-maximal effective concentration (EC50) is above 500 pM.

B13: h18E4-19 LC G90A (antibody, V domains shown)
VH: B6 VH
VL: B6 VL with G92A
notes: as for B8
Turning to B13, the concentration giving a half-maximal response (EC50) in [13] was in the range of 100 to 500 pM.

B14: h18E4-19 LC G94A (antibody, V domains shown)
VH: B6 VH
VL: B6 VL with G96A
notes: as for B8
Turning to B14, the EC50 in assay [14] was above 500 pM.

B15: h18E4-19 LC Y91A (antibody, V domains shown)
VH: B6 VH
VL: B6 VL with Y93A
notes: as for B8
In assay [14], B15 gave an EC50 above 500 pM.

B16: h18E4-19 HC Y100dA (antibody, name in Kabat numbering, V domains shown)
VH: B6 VH with Y109A
VL: B6 VL
notes: as for B8
Regarding B16, the EC50 in [14] is above 500 pM.

As a reminder, the Kd is the constant that tells how readily two partners part at equilibrium. A low value points to a tighter complex. The EC50 is the midpoint of the concentration-response curve.
